B1: DR903 (VHH)
VHH: EVQLVESGGGLVQAGGSLRLSCAASGRIASDYTRGWFRQAPGKEREFVAAIIRSVGDSYYADSVKGRFTISIDNAENTVYLQMNSLKPEDTAVYYCAVGGHLYYGSRWRYPASYDYWGQGTQVTVSS
notes: also called hIFNgR1 VHH
B2: DR912 (VHH)
VHH: EVQLVESGGGLVQAGGSLRLSCAPSGRTFSSYAMAWFRQPPGKEREFVAAITVSGASTYYADSVKGRFTISRDNAKNSMYLQMNSLKPEDTAVYYCAAGGPGTIFPDYDYWGQGTQVTVSS
notes: also called hIFNgR1 VHH
B3: DR913 (VHH)
VHH: EVQLVESGGGLVQAGGFLRLSCAASGRTFSSYAMGWFRQIPGKERELVAAISSWSGGSTYYADSVKGRFTISRDNAKNTVYLQMLSLKPEDTAVYYCTTGDYYSDYFKYDNENWGKGTQVTVSS
notes: also called hIFNgR1 VHH
B4: DR914 (VHH)
VHH: EVQLVESGGGLVQAGGSLTLSCVASGRAFSNSAMAWFRQTPGKEREFVSAISRGGGSTDYADSVKGRFTISKDNAKNTVYLQMNSLKPEDTAVYYCAMRYYSGRYYESLEYDYWGQGTQVTVSS
notes: also called hIFNgR1 VHH
B5: DR915 (VHH)
VHH: EVQLVESGGGLVQAGGSLRLSCAAARRTLHNFAMAWFRQAPGKEREFVAAISKGGGSADYADSVKGRFTISRDNAKNTVYLQMNSLKPEDTAVYYCAANDLASYSDSSYTSTSRYDYWGQGTQVTVSS
notes: also called hIFNgR1 VHH
B6: DR916 (VHH)
VHH: EVQLVESGGGLVQPGGSLRLSCTASGRPRTTYAMGWFRQAPGKEREIVAAISKAGGSTYVADSAKGRFAISKDNAKNTVYLQMNSLKPEDTAVYYCAARAGFAAQIFEYDYWGQGTLVTVSS
notes: also called hIFNgR1 VHH
B7: DR917 (VHH)
VHH: EVQLVESGGGLVQAGGSLRLSCAASGRTFSGYNMGWFRQAPGKEREFVAAIAWAGSRTYYTDSVKGRFTISRDNAKNTMYLQMNTLRPEDTAVYYCAAHDETYYRLDRVDLYTHWGQGTLVTVSS
notes: also called hIFNgR1 VHH
B8: DR918 (VHH)
VHH: EVQLVESGGGLVQAGGSLRLSCATSGLTDSTYGMAWFRQAPGKEREFVAAISRAGGSADHADSVKGRFTVSRDNAKKMVYLQMNSLKPEDTAVYYCASGRSYSSPYDYFNALAYSYWGQGTQVTVSS
notes: also called hIFNgR1 VHH
B9: DR919 (VHH)
VHH: EVQLVESGGGLVQPGGFLRLSCAASRRTLSTYAMGWFRQAPGKEREFVAAISWRSGNTYYADSVKGRFTISRDNAKNTMYLQMNSLKPEDTAVYYCAANEVATMSGPHDHWGQGTLVTVSS
notes: also called hIFNgR1 VHH
B10: DR920 (VHH)
VHH: EVQLVESGGGLVQAGGSLRLSCAASGRSFANYAMGWFRQAPGKERETVAAISRGGGSTWYADSVKGRFTISKDNAKNTVYLQMNSLKPEDTAIYYCAARSYSGSYTYSFGEYDYWGQGTQVTVSS
notes: also called hIFNgR1 VHH
B11: DR921 (VHH)
VHH: QVQLVESGGGLVQAGDSLRLSCAASGRTFTFSTHNMGWFRQAPGKEREFVGGIMWTSRASYADSVKGRFTVSRDNAKNTVYLQMNSLKPEDTAVYYCAAAWYGNSGASYDYWGQGTQVTVSS
notes: also called hIFNgR1 VHH
B12: DR904 (VHH)
VHH: EVQLVESGGGLVQAGGSLRLSCEASESILSINTMGWFRQAPGKQRELVAAISSGGSTNYADSVKGRFTISRDNAKNTVYLQMNSLKPEDTAVYYCDADRAYYKGQGTQVTVSS
notes: also called hIFNgR1 VHH
B13: DR922 (VHH)
VHH: QVQLVESGGGLVRAGGSLRLSCAASGSITSINTMGWFRQAPGKQRELVAAITSGGSTNYADSVKGRFTISRDNARNTVYLQMYSLKPEDTAVYYCEADSMYFRGQGTQVTVSS
notes: also called hIFNgR1 VHH
B14: DR923 (VHH)
VHH: QVQLVESGGGLVQAGGSLRLSCAASRRTFMTYAMGWFRQAPGKEREFVAAISWSSGSTYYADSVKGRFTISRDNAKNTMYLQMNSLKPEDTAVYYCTASSIATMYGPNDYAGQGTLVTVSS
notes: also called hIFNgR1 VHH
B15: DR924 (VHH)
VHH: QVQLVESGGGLVQAGGSLRLSCTASGRTFSRYAMGWFRQAPGKEREFVATISRSGGTTSYANSVKGRFTISRDNAKNTVYLQMNSLKTEDTAVYNCAARDGPAMGVFGSDYDYWGQGTLVTVSS
notes: also called hIFNgR1 VHH
B16: DR925 (VHH)
VHH: EVQLVESGGGLVQAGGSLVLSCAASGRTFSRYAMGWFRQAPGKEREFVAAISIGGGSADYADTVKGRFTISRNNAKNTMYLQMNSLKPEDTAVYYCAARTPRPSSSYFTPQDYEYWGQGTLVTVSS
notes: also called hIFNgR1 VHH
B17: DR926 (VHH)
VHH: EVQLVESGGGLVQAGGSLRLSCAASGRTFSRYAMNWFRQAPGKEREFVAAISWSSGNTYVADSVKGRFTISRDNAKNTMYLQMNNLAPEDTAVYYCAATTIATMSDENTYWGQGTQVTVSS
notes: also called hIFNgR1 VHH
B18: DR905 (VHH)
VHH: EVQLVESGGGLVQAGGSLRLSCVASGRTFTGYAMGWFRQAPGKEREFVAVITWSGATTYYSASVKGRFTLSRDNAKNTVYLQMNSLKSEDTAVYYCAIRIRDGVSPENPNEYGYWGQGTQVTVSS
notes: also called hIFNgR1 VHH
B19: DR906 (VHH)
VHH: EVQLVESGGGLVQAGGSLRLSCAASGSTFSTYVMGWFRQAPGKEREFVAAISRSGGTTTYADSVKGRFDISRDNGKNTLFLQMNSLIPEDTAAYYCAARAGPAIGRTANDYHSWGQGTLVTVSS
notes: also called hIFNgR1 VHH
B20: DR907 (VHH)
VHH: EVQLVESGGGLVQAGGSLRLSCAASGRTFSNYAMGWFRQAPGNEREFVAAINWNIGSTYYADSVKGRFTISRDNAKNTVYLQMNSLKPEDTAVYYCGAVWPTGRLRVDSEYDYWGQGTQVTVSS
notes: also called hIFNgR1 VHH
B21: DR908 (VHH)
VHH: EVQLVESGGGLVQAGGSLRVTCAASGRTFTSLAMGWFRQAPGKEREFVAAISRSGGSTDYADSVKGRFFISRDNAKSTLYLQMSSLKPEDTAVYYCAARDYSTLQYYNEYEYSDWGQGTQVTVSS
notes: also called hIFNgR1 VHH
B22: DR909 (VHH)
VHH: EVQLVESGGGLVQAGGSLRLSCAASGRTFGTSFGALSMGWFRQAPGKEREFVAAITRNTGRTFYADSVKDRFTISRDNAKNTASLQMNSLEPEDTAVYICAATNSYDDLRRSYAYNYWGQGTQVTVSS
notes: also called hIFNgR1 VHH
B23: DR910 (VHH)
VHH: EVQLVESGGGLVQTGGSLRLSCAASGRTFSSYAMAWFRQAPGKEREFVAAISILGGSADYEDSVQGRFTISRDNAKNTMYLQMNSLKPEDTAVYYCAARRPAPSDSYWSSTSYAYWGQGTLVTVSS
notes: also called hIFNgR1 VHH
B24: DR911 (VHH)
VHH: EVQLVESGGALVQAGGSLRLSCTVSGRSFSTYAMAWFRRAPGKERELVSAITVGGGSTYYVDSVKGRFTISRENAKNTLYLQMNNLKPEDTAIYICAARDYRRRSYAPEAEQYDYWGQGTQVTVSS
notes: also called hIFNgR1 VHH

Target: T1, extracellular domain of hIFNgR1 (human, UniProt P15260 18-245)
T1 construct: also called hIFNgR1 ECD; human IFNgR1
T1 sequence: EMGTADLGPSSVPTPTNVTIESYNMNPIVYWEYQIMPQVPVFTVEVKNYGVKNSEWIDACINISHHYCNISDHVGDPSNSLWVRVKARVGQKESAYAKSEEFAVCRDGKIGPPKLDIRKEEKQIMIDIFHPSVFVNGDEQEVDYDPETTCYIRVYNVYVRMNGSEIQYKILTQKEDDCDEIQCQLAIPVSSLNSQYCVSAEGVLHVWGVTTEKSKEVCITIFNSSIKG
Test: periplasmic extract ELISA on coated antigen
Protocol: Upon completion of the biopanning of Example 3, three 96-well plates of individual phage clones were isolated in order to perform periplasmic extract ELISA (PE-ELISA) on IFNgR1 coated plates to identify positive VHH binders that selectively bound IFNgR1. A 96-well plate was coated with IFNgR1 and PBS under the same conditions. Next, wells were blocked at 37° C. for 1 h. Then, […] was added to each well and incubated for 1 h. Subsequently, 100 μl of anti-tag polyclonal antibody conjugated to HRP was added to each well and incubated at 37° C. for 1 h. Plates were developed with TMB substrate. The reaction was stopped by the addition of H2SO4. Absorbance at 450 nm was read on a microtiter plate reader. Antibodies with absorbance of the antigen-coated well at least threefold greater than PBS-coated control were considered to provide specific binding to IFNgR1. Positive clones were sequenced, and sequences analyzed to identify unique clonotypes

| Binder | binding result |
| --- | --- |
| B1 | binds |
| B2 | binds |
| B3 | binds |
| B4 | binds |
| B5 | binds |
| B6 | binds |
| B7 | binds |
| B8 | binds |
| B9 | binds |
| B10 | binds |
| B11 | binds |
| B12 | binds |
| B13 | binds |
| B14 | binds |
| B15 | binds |
| B16 | binds |
| B17 | binds |

Target: T1, extracellular domain of hIFNgR1
Test: flow cytometry

| Binder | binding result |
| --- | --- |
| B18 | binds |
| B19 | binds |
| B20 | binds |
| B21 | binds |
| B22 | binds |
| B23 | binds |
| B24 | binds |

Target: T2, extracellular domain of mIFNgR1 (mouse, UniProt P15261 26-254)
T2 construct: also called mIFNgR1 ECD; mouse IFNgR1
T2 sequence: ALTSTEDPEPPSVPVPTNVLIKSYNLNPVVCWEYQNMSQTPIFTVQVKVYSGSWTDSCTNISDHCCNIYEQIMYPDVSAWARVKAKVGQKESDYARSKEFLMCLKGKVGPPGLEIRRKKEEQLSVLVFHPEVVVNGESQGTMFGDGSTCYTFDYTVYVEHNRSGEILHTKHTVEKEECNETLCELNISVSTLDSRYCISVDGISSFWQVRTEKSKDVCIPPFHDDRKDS
Test: flow cytometry, cross-reactivity

| Binder | binding result |
| --- | --- |
| B1 | binds |
| B2 | binds |
| B3 | binds |
| B4 | binds |
| B5 | binds |
| B6 | binds |
| B7 | binds |
| B8 | binds |
| B10 | binds |
| B13 | binds |
| B14 | binds |
| B15 | binds |
| B16 | binds |
| B17 | binds |
| B18 | binds |
| B19 | binds |
| B20 | binds |
| B21 | binds |
| B22 | binds |
| B23 | binds |
| B24 | binds |

— US20230365696A1 (SYNTHEKINE, published 2023)
